Test results reported in paper PMC9012491, “Engineering the Single Domain Antibodies Targeting Receptor Binding Motifs Within the Domain III of West Nile Virus Envelope Glycoprotein” (Frontiers in Microbiology, 2022).

Tests used:
[1] = target: T1, synthetic analog of the receptor binding motif DIII-1^G299–K307 (West Nile virus; residues agree with …, biotinylated C-terminal lysine); assay: far-Western, overlay or dot blot; dot blot: purified sdAbs (1 μl) spotted on nitrocellulose, blocked with 5% BSA; biotinylated peptide 1 μg/ml in phosphate buffer pH 7.0, 1 h; streptavidin-HRP; conditions: both partners purified
T1 construct: numbers count on: the E glycoprotein; rDIII is of strain goshawk (GenBank DQ116961.1); also called DIII-1^L299–K307 (so printed in the discussion); source: synthetic peptide (Caslo)
T1 chain: GTTYGVCSK

[2] = target: T2, synthetic analog of the receptor binding motif DIII-2^V371–R388 (West Nile virus; residues agree with …, biotinylated C-terminal lysine); assay: as above; conditions: both partners purified
T2 construct: numbers count on: the E glycoprotein; rDIII is of strain goshawk (GenBank DQ116961.1); source: synthetic peptide (Caslo)
T2 chain: VLIELEPPFGDSYIVVGR

B1: sdAbA1 (VHH)
VHH: QVQLLASGPGLVKPSQTLSLTCTVSGGAITSGYYGWSWIRQPPGKELEWMGVIASSGSTYYSPSLKSRTSISRDTSKSQFTLQLSSVTPEDTAVYYCARDAIQGPNFLYDYWGQGTLVTVS
binding result [1]: binds

B2: sdAbA6 (VHH)
VHH: EVQVVASGGGLVQPGGSLSLSCAASGFTFSGYDMTWVRQAPGKGLEWVSSINSGGGNTNYADSVKGRFTISRDNAKNTLYLQMNSLKPEDTALYYCARRNDYGSLLAALDAWGQGTLVTVS
binding result [1]: binds

B3: sdAbA10 (VHH)
VHH: QVQVLASGGGLVQPGGSLRLSCAASGFTFSSNAMSWVRQAPGKGLEWVSTINSGGSRTTYTDSVKGRFTISRDNAKNTLYLQMNSLKPDDTAVYYCAKARVDLNLHGWGTSYEYDYWGQGTLVTVS
notes: also called sdAbA9
binding result [2]: binds
